Test results published in paper PMC9482650, “Quantitative fragmentomics allow affinity mapping of interactomes” (Nature Communications, 2022).
Positions count from the first letter of the chain named.

T1: SNTG2, Q9NY99
T1 sequence (Q9NY99 68-166, limits assumed, looked up): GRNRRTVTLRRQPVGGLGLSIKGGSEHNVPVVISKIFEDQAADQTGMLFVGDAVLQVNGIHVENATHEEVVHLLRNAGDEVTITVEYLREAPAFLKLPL

T2: TIAM2, Q8IVF5
T2 sequence (Q8IVF5 885-986, limits assumed, looked up): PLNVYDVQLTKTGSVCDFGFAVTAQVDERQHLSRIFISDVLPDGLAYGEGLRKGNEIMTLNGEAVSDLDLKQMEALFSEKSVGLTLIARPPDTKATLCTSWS

T3: TX1BP3, O14907
T3 sequence (O14907 10-122, limits assumed, looked up): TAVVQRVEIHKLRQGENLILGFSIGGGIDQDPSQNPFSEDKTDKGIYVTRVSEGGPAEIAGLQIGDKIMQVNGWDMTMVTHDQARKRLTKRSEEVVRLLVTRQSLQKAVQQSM

T4: SNTG1, Q9NSN8
T4 sequence (Q9NSN8 52-150, limits assumed, looked up): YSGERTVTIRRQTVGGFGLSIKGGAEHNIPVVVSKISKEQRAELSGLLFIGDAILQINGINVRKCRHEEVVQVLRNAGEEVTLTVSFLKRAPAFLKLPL

T5: DLG3_1, Q92796
T5 sequence (Q92796 125-227, limits assumed, looked up): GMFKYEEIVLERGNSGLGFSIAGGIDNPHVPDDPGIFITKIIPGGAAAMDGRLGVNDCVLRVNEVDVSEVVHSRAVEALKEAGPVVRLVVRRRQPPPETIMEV

T6: SNTA1, Q13424
T6 sequence (Q13424 82-180, limits assumed, looked up): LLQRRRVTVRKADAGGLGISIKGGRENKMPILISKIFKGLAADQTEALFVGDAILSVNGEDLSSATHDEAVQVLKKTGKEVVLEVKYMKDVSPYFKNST

T7: LIN7A, O14910
T7 sequence (O14910 103-200, limits assumed, looked up): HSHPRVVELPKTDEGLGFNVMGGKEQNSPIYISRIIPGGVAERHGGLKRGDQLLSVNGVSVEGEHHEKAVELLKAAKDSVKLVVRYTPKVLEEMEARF

T8: DLG3_2, Q92796
T8 sequence (Q92796 221-321, limits assumed, looked up): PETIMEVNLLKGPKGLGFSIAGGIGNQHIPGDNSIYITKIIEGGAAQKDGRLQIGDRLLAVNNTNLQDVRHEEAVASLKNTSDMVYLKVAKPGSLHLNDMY

T9: LIN7B, Q9HAP6
T9 sequence (Q9HAP6 88-185, limits assumed, looked up): T7 sequence (O14910 103-200, limits assumed, looked up) with S2A, V20I, I35V, E42D, H65Q, K77Q, D78G, K89R

T10: RADIL, Q96JH8
T10 sequence (Q96JH8 971-1071, limits assumed, looked up): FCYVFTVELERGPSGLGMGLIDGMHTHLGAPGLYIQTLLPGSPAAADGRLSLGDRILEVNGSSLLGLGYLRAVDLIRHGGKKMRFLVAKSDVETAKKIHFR

T11: PDZRN3_1, Q9UPQ7
T11 sequence (Q9UPQ7 244-349, limits assumed, looked up): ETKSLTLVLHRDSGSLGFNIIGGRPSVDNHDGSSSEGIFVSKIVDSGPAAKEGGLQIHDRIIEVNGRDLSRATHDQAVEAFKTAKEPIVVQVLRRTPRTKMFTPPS

T12: APBA2_1, Q99767
T12 sequence (Q99767 563-664, limits assumed, looked up): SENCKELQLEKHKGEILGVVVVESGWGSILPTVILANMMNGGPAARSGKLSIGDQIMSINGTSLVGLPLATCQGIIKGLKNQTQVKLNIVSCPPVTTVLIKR

B1: CACNA1A, O00555 (peptide)
chain: PYSESDDDWC
B2: OR8G1, Q15617 (peptide)
chain: KKMLQRRTLL
B3: MKNK1, Q9BUB5 (peptide)
chain: GEDRSPPTAL

Key:
Assay in all cases: holdup assay
Set-up in all cases: key: below the threshold = too weak to quantify, mostly under pKd 3.1 to 4
Details in all cases: plain residues with an end cap or a label only (N-terminal biotin on a linker: ado-ado)
[1] = biological target: T1, SNTG2, Q9NY99
[2] = biological target: T2, TIAM2, Q8IVF5
[3] = biological target: T3, TX1BP3, O14907
[4] = biological target: T4, SNTG1, Q9NSN8
[5] = biological target: T5, DLG3_1, Q92796
[6] = biological target: NHERF4_2, Q86UT5
[7] = biological target: T6, SNTA1, Q13424
[8] = biological target: Inadl_1, Q8NI35
[9] = biological target: MAST2, Q6P0Q8
[10] = biological target: CASK, O14936
[11] = biological target: TJP1_2, Q07157
[12] = biological target: GORASP2, Q9H8Y8
[13] = biological target: T7, LIN7A, O14910
[14] = biological target: GRID2IP_2, A4D2P6
[15] = biological target: DLG5_1, Q8TDM6
[16] = biological target: T8, DLG3_2, Q92796
[17] = biological target: FRMPD4, Q14CM0
[18] = biological target: T9, LIN7B, Q9HAP6
[19] = biological target: T10, RADIL, Q96JH8
[20] = biological target: ARHGEF12, Q9NZN5-2
[21] = biological target: T11, PDZRN3_1, Q9UPQ7
[22] = biological target: PICK1, Q9NRD5
[23] = biological target: MAGI1_1, Q96QZ7
[24] = biological target: T12, APBA2_1, Q99767

Chain of CASK, O14936 (O14936 487-570): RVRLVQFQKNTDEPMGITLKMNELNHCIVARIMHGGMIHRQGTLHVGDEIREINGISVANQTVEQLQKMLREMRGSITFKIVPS
Chain of Inadl_1, Q8NI35 (Q8NI35 113-229): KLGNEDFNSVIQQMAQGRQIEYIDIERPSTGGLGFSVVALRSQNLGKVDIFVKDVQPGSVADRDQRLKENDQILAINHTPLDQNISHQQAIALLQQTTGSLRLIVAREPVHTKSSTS
Chain of PICK1, Q9NRD5 (Q9NRD5 17-115): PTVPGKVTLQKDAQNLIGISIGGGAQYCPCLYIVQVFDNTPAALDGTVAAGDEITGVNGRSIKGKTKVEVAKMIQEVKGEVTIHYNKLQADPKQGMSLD
Chain of MAST2, Q6P0Q8 (Q6P0Q8 1099-1202): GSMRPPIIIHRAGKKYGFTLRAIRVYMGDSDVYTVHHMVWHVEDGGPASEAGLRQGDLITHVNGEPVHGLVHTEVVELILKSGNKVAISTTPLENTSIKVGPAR
Chain of GRID2IP_2, A4D2P6 (A4D2P6 272-370): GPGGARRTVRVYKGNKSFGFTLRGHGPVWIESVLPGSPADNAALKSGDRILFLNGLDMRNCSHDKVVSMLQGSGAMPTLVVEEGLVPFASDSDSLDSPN
Chain of DLG5_1, Q8TDM6 (Q8TDM6 617-713): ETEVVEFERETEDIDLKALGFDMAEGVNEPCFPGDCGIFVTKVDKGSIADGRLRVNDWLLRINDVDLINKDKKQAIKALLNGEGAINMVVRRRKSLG
Chain of ARHGEF12, Q9NZN5-2 (Q9NZN5 other isoform, or with tags, fused parts or gaps): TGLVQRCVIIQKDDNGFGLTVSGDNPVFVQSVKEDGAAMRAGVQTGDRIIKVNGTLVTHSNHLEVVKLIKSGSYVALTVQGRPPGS
Chain of MAGI1_1, Q96QZ7 (Q96QZ7 1-106): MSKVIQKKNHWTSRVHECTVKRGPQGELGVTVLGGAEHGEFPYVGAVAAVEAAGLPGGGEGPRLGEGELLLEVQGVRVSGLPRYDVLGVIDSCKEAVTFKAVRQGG
Chain of NHERF4_2, Q86UT5 (Q86UT5 220-308): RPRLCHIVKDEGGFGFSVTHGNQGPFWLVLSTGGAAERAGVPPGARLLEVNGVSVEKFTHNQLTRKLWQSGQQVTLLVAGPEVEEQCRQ
Chain of TJP1_2, Q07157 (Q07157 181-274): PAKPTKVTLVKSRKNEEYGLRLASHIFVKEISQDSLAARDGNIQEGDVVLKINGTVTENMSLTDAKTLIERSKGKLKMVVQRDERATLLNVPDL
Chain of FRMPD4, Q14CM0 (Q14CM0 67-160): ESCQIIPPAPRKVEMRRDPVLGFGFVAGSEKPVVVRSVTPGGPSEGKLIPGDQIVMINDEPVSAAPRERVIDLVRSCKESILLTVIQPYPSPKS

| Binder | pKd [1] | pKd [2] | pKd [3] | pKd [4] | pKd [5] | pKd [6] | pKd [7] | pKd [8] | pKd [9] | pKd [10] | pKd [11] | pKd [12] | pKd [13] | pKd [14] | pKd [15] | pKd [16] | pKd [17] | pKd [18] | pKd [19] | pKd [20] | further results |
| --- | --- | --- | --- | --- | --- | --- | --- | --- | --- | --- | --- | --- | --- | --- | --- | --- | --- | --- | --- | --- | --- |
| B1 | below the threshold | 4.06 | below the threshold | 3.66 | below the threshold | below the threshold | below the threshold | below the threshold | below the threshold | 3.53 | below the threshold | 3.67 | below the threshold | below the threshold | below the threshold | 4.16 | 4.01 | 3.9 | below the threshold | below the threshold | pKd [21]: below the threshold; pKd [22]: below the threshold; pKd [23]: below the threshold; pKd [24]: below the threshold |
| B2 | below the threshold | below the threshold | 3.76 | below the threshold | below the threshold | below the threshold | 3.58 | below the threshold | 5.13 | below the threshold | below the threshold | 3.8 | below the threshold | 5.09 | below the threshold | below the threshold | 3.53 | below the threshold | 3.66 | 4.51 | pKd [21]: 3.6; pKd [22]: 3.99; pKd [23]: below the threshold; pKd [24]: below the threshold |
| B3 | 3.7 | below the threshold | below the threshold | below the threshold | below the threshold | below the threshold | below the threshold | below the threshold | 4.85 | below the threshold | below the threshold | below the threshold | below the threshold | below the threshold | below the threshold | below the threshold | 4.01 | below the threshold | below the threshold | below the threshold | pKd [21]: below the threshold; pKd [22]: below the threshold; pKd [23]: below the threshold; pKd [24]: below the threshold |
